Results: the Immune Epitope Database (IEDB)

Legend:
Assay in all cases: IEDB peptide-MHC binding, purified MHC/competitive/radioactivity; filed as Kd, often an IC50 or EC50 that approximates it; ≥ and ≤ were set here for values at or beyond the usual limits of such assays
HLA-A*68:02 = target: HLA-A*68:02
HLA-A*02:06 = target: HLA-A*02:06
HLA-A*02:01 = target: HLA-A*02:01
HLA-A*02:02 = target: HLA-A*02:02
HLA-A*02:03 = target: HLA-A*02:03
HLA-B*44:03 = target: HLA-B*44:03
HLA-B*18:01 = target: HLA-B*18:01
HLA-B*45:01 = target: HLA-B*45:01
HLA-B*40:01 = target: HLA-B*40:01
HLA-B*44:02 = target: HLA-B*44:02
HLA-B*40:02 = target: HLA-B*40:02
HLA-A*26:01 = details: source organism: Dengue virus 3 Martinique/1243/1999
[1] = source organism: Dengue virus 3 Martinique/1243/1999
[2] = source organism: Trypanosoma cruzi
[3] = source organism: Mammarenavirus brazilense
[4] = source organism: SARS coronavirus Tor2
[5] = source organism: Mammarenavirus guanaritoense
[6] = source organism: Mammarenavirus lassaense
[7] = source organism: Dengue virus 1 Brazil/97-11/1997
[8] = source organism: Mammarenavirus juninense
[9] = source organism: Lymphocytic choriomeningitis virus (strain Armstrong)
[10] = source organism: Lassa virus Josiah

In the case of CSAVPVHWV, the Kd (HLA-A*68:02; [1]) is reported as 11.1 nM.

In the case of DVSRPTTVV, the Kd (HLA-A*02:06; [2]) is reported as 12800 nM, the Kd (HLA-A*02:01; [2]) is reported as ≥ 35900 nM and the Kd (HLA-A*68:02; [2]) is reported as 37.7 nM. For the same sequence, the Kd (HLA-A*02:02; [2]) was 16300 nM and the Kd (HLA-A*02:03; [2]) was ≥ 38100 nM.

Work on EELSTLYEAL yielded a Kd (HLA-B*44:03; [3]) of 595 nM, a Kd (HLA-B*18:01; [3]) of 371 nM and a Kd (HLA-B*45:01; [3]) of 2080 nM. The Kd (HLA-B*40:01; [3]) was 1260 nM, the Kd (HLA-B*44:02; [3]) was 1890 nM and the Kd (HLA-B*40:02; [3]) was 121 nM.

For EEVPNIIHEA, the Kd (HLA-B*44:03; [3]) was 16000 nM, the Kd (HLA-B*18:01; [3]) was 12400 nM and the Kd (HLA-B*45:01; [3]) was 269 nM. The Kd (HLA-B*40:01; [3]) was ≥ 20400 nM, the Kd (HLA-B*44:02; [3]) was ≥ 26900 nM and the Kd (HLA-B*40:02; [3]) was 790 nM.

Work on ETYQLWTAL yielded a Kd (HLA-A*68:02; [1]) of 3.39 nM and a Kd (HLA-A*26:01) of 181 nM.

GEILLLEWLA showed a Kd (HLA-B*44:03; [4]) of 110 nM, a Kd (HLA-B*18:01; [4]) of 4670 nM and a Kd (HLA-B*45:01; [4]) of 17.2 nM. For the same sequence, the Kd (HLA-B*40:01; [4]) was 20.3 nM, the Kd (HLA-B*44:02; [4]) was 610 nM and the Kd (HLA-B*40:02; [4]) was 16400 nM.

GEQVDLGPVL was tested, and the Kd (HLA-B*44:03; [5]) was ≥ 43500 nM, the Kd (HLA-B*18:01; [5]) was 12100 nM and the Kd (HLA-B*45:01; [5]) was 1900 nM. For the same sequence, the Kd (HLA-B*40:01; [5]) was 9030 nM, the Kd (HLA-B*44:02; [5]) was ≥ 32700 nM and the Kd (HLA-B*40:02; [5]) was 52.6 nM.

In the case of HDFGIPTPS, the Kd (HLA-B*44:03; [6]) is reported as ≥ 78100 nM, the Kd (HLA-B*18:01; [6]) is reported as 18200 nM and the Kd (HLA-B*45:01; [6]) is reported as 1460 nM. The Kd (HLA-B*40:01; [6]) was 13700 nM, the Kd (HLA-B*44:02; [6]) was ≥ 67100 nM and the Kd (HLA-B*40:02; [6]) was 76.6 nM.

In the case of LTMKEKSWLV, the Kd (HLA-A*02:06; [7]) is reported as 73.8 nM and the Kd (HLA-A*68:02; [7]) is reported as 250 nM.

MEKLKALVA was tested, and the Kd (HLA-B*44:03; [4]) was 277 nM, the Kd (HLA-B*18:01; [4]) was 5490 nM and the Kd (HLA-B*45:01; [4]) was 24.1 nM. For the same sequence, the Kd (HLA-B*40:01; [4]) was 152 nM, the Kd (HLA-B*44:02; [4]) was 568 nM and the Kd (HLA-B*40:02; [4]) was 176 nM.

For MTTIGIVLL, the Kd (HLA-A*68:02; source organism: Dengue virus 2 Peru/IQT2913/1996) was 50.1 nM.

NEYTGNYQCG was tested, and the Kd (HLA-B*44:03; [4]) was 7520 nM, the Kd (HLA-B*18:01; [4]) was ≥ 33400 nM and the Kd (HLA-B*45:01; [4]) was 1790 nM. For the same sequence, the Kd (HLA-B*40:01; [4]) was ≥ 69600 nM, the Kd (HLA-B*44:02; [4]) was ≥ 70200 nM and the Kd (HLA-B*40:02; [4]) was ≥ 28500 nM.

PDYKRPGVS was tested, and the Kd (HLA-B*44:03; [6]) was ≥ 54300 nM, the Kd (HLA-B*18:01; [6]) was ≥ 77500 nM and the Kd (HLA-B*45:01; [6]) was ≥ 77700 nM. For the same sequence, the Kd (HLA-B*40:01; [6]) was ≥ 33800 nM, the Kd (HLA-B*44:02; [6]) was ≥ 77900 nM and the Kd (HLA-B*40:02; [6]) was 17600 nM.

PELELNVDAM was tested, and the Kd (HLA-B*44:03; [8]) was ≥ 70100 nM, the Kd (HLA-B*18:01; [8]) was 367 nM and the Kd (HLA-B*45:01; [8]) was ≥ 70000 nM. For the same sequence, the Kd (HLA-B*40:01; [8]) was ≥ 69500 nM, the Kd (HLA-B*44:02; [8]) was ≥ 70200 nM and the Kd (HLA-B*40:02; [8]) was 796 nM.

Sequence RELLGYCVSL has a Kd (HLA-B*44:03; [3]) of 5060 nM, a Kd (HLA-B*18:01; [3]) of 12800 nM and a Kd (HLA-B*45:01; [3]) of 4850 nM. For the same sequence, the Kd (HLA-B*40:01; [3]) was 9820 nM, the Kd (HLA-B*44:02; [3]) was 1920 nM and the Kd (HLA-B*40:02; [3]) was 5.07 nM.

For RELYLNSSNV, the Kd (HLA-B*44:03; [4]) was 1070 nM, the Kd (HLA-B*18:01; [4]) was ≥ 70500 nM and the Kd (HLA-B*45:01; [4]) was 95.5 nM. It also gave a Kd (HLA-B*40:01; [4]) of 184 nM, a Kd (HLA-B*44:02; [4]) of 2160 nM and a Kd (HLA-B*40:02; [4]) of 19.2 nM.

In the case of RLLPSLLLLL, the Kd (HLA-A*02:06; [2]) is reported as 0.585 nM, the Kd (HLA-A*68:02; [2]) is reported as 7220 nM and the Kd (HLA-A*02:02; [2]) is reported as 0.28 nM. The Kd (HLA-A*02:03; [2]) was 0.915 nM.

For SEAQMSIQLI, the Kd (HLA-B*44:03; [6]) was 235 nM, the Kd (HLA-B*18:01; [6]) was 13900 nM and the Kd (HLA-B*45:01; [6]) was 997 nM. For the same sequence, the Kd (HLA-B*40:01; [6]) was 1800 nM, the Kd (HLA-B*44:02; [6]) was 30.4 nM and the Kd (HLA-B*40:02; [6]) was 936 nM.

SENDWFSCM showed a Kd (HLA-B*44:03; [9]) of 22.2 nM, a Kd (HLA-B*18:01; [9]) of 185 nM and a Kd (HLA-B*45:01; [9]) of 117 nM. It also gave a Kd (HLA-B*40:01; [9]) of 1400 nM, a Kd (HLA-B*44:02; [9]) of 21.1 nM and a Kd (HLA-B*40:02; [9]) of 164 nM.

SMEAEMIQL was tested, and the Kd (HLA-A*02:01; source organism: Homo sapiens) was 39.8 nM, the Kd (HLA-A*68:02; source organism: Homo sapiens) was ≥ 52500 nM and the Kd (HLA-A*02:02; source organism: Homo sapiens) was 70 nM. For the same sequence, the Kd (HLA-A*02:03; source organism: Homo sapiens) was 2380 nM.

TEVMPVSMA gave a Kd (HLA-B*44:03; [4]) of 3850 nM, a Kd (HLA-B*18:01; [4]) of 11100 nM and a Kd (HLA-B*45:01; [4]) of 182 nM. The Kd (HLA-B*40:01; [4]) was 15400 nM, the Kd (HLA-B*44:02; [4]) was 6840 nM and the Kd (HLA-B*40:02; [4]) was 79.7 nM.

TSIGLICVIA was tested, and the Kd (HLA-A*68:02; [1]) was 35.5 nM.

For WVSGVSGNI, the Kd (HLA-A*68:02; source organism: Dengue virus 4 Philippines/H241/1956) was 10.1 nM.

With YLISIFLHLV the Kd (HLA-A*02:06; [10]) was 8.6 nM, the Kd (HLA-A*68:02; [10]) was 167 nM and the Kd (HLA-A*02:02; [10]) was 2.73 nM. For the same sequence, the Kd (HLA-A*02:03; [10]) was 1.72 nM.
